Reference: US11306137B2, “Antibody binding agents that bind Acinetobactor and uses thereof” (priority 2015, dated 2022)

What was measured:
A. baumannii HUMC1 [1] = assay: Effects of antibody on colistin MIC; format: cell-based
Protocol: The minimum inhibitory concentration (MIC) of colistin for A. baumannii HUMC1 was determined in congruence with standard CLSI methodologies. In brief, A. baumannii HUMC1 was passaged in Mueller Hinton II (MH-II) Broth for 3 hr at 37° C. with shaking then diluting to 5×10^5 CFUs/mL. Colistin was serially diluted across rows of a 96-well plate with 0.1, 1, or 10 μg/mL C8 MAb, which was incubated at 37° C. for 24 hr. The MIC value was read as the lowest concentration that prevented visible growth of bacteria.

A. baumannii HUMC1 [2] = assay: Lethal bloodstream (i.v. tail-vein) infection model, survival; format: in vivo, mice; settings: i.v. infection; treated i.p. at 1 hr post-infection; C8 150 μg, colistin 0.0125 mg/kg; FIG. 7D
[3] = molecular target: T1, DHFR-3Loop fusion protein (mouse (DHFR part)); A. baumannii (OmpA …); assay: ELISA with DHFR-3Loop as target (data not shown)
T1 construct: also called DHFR-3 Loop protein; recombinant DHFR-3Loop protein
T1 chain: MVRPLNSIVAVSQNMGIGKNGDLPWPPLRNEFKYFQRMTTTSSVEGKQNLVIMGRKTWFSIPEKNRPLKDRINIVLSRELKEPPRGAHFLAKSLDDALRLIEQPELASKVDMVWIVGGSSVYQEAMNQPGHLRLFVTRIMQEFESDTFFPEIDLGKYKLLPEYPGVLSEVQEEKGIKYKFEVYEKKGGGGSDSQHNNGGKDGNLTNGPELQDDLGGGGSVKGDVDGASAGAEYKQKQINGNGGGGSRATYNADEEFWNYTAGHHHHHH

[4] = molecular target: T2, outer membrane protein A (OmpA) of A. baumannii (A. baumannii, UniProt Q6RYW5 20-356); assay: ELISA with whole OmpA as target (data not shown)
T2 construct: also called whole OmpA
T2 sequence: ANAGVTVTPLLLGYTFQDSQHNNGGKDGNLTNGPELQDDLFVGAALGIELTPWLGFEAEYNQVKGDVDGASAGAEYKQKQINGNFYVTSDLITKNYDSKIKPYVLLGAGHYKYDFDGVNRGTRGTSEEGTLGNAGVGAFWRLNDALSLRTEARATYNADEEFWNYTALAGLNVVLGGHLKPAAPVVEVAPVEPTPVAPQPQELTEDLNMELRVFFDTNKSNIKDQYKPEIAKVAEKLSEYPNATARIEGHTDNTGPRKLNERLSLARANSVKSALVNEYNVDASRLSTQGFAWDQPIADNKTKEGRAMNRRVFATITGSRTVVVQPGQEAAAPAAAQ

[5] = test system: A. baumannii cell surface; assay: Flow cytometry binding to A. baumannii cell surface; settings: HUMC1 strain
Protocol: Hybridoma pre-clones were selected for subcloning based on bacterial cell surface reactivity by flow cytometry. Briefly, A. baumannii was passaged to log phase, stained with the bacterial dye SYTO BC (LifeTech #B7277), then stained with pre-clone supernatant from 96-well plates at 4° C., rinsed, and counter-stained with CF 647-conjugated goat anti-mouse IgG (Sigma-Aldrich, #SAB4600182). Control samples were stained with mouse IgG1 isotype control mAb (R&D Systems, #MAB002). Percent positivity was determined by flow cytometry.
Hybridoma cell lines were propagated in 96-well flat-bottom plates in DMEM-20%, and supernatants were harvested from wells for initial flow cytometry screening to identify antibodies that bound to intact bacteria. In brief, A. baumannii isolates were passaged to log phase, stained with the bacterial dye SYTO BC (LifeTech #B7277), and incubated for 1 hr with undiluted supernatants collected from 96-well plates at 4° C. Cells were washed and counter-stained with a secondary antibody, CF647-conjugated goat anti-mouse IgG (Sigma-Aldrich, #SAB4600182). Control samples were stained with a mouse IgG1 isotype control MAb (R&D Systems, #MAB002) as a negative control, and mouse polyclonal HUMC1-immune serum as a positive control for bacterial binding. Hybridomas that tested positive for bacterial binding were subcloned by limiting dilution into 96-well plates to ensure clonality, expanded, and retested to confirm bacterial binding.

A. baumannii HUMC1 [6] = assay: Lethal bloodstream (i.v. tail-vein) infection model, survival; format: in vivo, mice; settings: 2×10^7 HUMC1 i.v.; treated once i.v., approximately 20 μg
Protocol: To determine if C8 could treat, inhibit and/or prevent A. baumannii induced sepsis, mice were infected i.v. via the tail-vein with 2×10^7 hyper-virulent A. baumannii HUMC1 and were treated once i.v. with either protein-G purified C8 mAb (approximately 10 or 20 μg doses) or an isotype-control antibody in a saline buffer. […] In a second experiment, mice were similarly infected and the C8 MAb was administered once i.v. in saline buffer at a low (5 μg) and very low (0.5 μg) dose.
Male C3HeB/Fe mice (Jackson Labs) between the ages of 7-10 wk were used for all experiments. All animal work was conducted following approval by the Institutional Animal Use and Care Committee at the University of Southern California, in compliance with the recommendations in the Guide for the Care and Use of Laboratory Animals of the National Institutes of Health.
For the bloodstream infection model, mice were infected intravenously via the tail-vein with designated inocula of A. baumannii isolates. An oropharyngeal model of aspiration pneumonia that recapitulates hospital- or ventilator-associated pneumonia (VAP) relevant to ICU populations was used. In brief, mice were sedated with isoflurane, hung by their maxillary incisors, tongues held to prevent swallowing, and 50 μL of bacterial inocula was placed in the trachea to allow inoculation of the organisms into the lungs by reflexive aspiration.

colistin
MIC of colistin against HUMC1 (A. baumannii HUMC1 [1]; colistin alone): 2 µg/mL | MIC of colistin against HUMC1 (A. baumannii HUMC1 [1]; in the presence of C8 at 0.1 μg/mL): 2 µg/mL | MIC of colistin against HUMC1 (A. baumannii HUMC1 [1]; in the presence of C8 at 1 μg/mL): 2 µg/mL | MIC of colistin against HUMC1 (A. baumannii HUMC1 [1]; in the presence of C8 at 10 μg/mL): 2 µg/mL | survival, delayed treatment (monotherapy) (A. baumannii HUMC1 [2]): completely ineffective

B1: 9.1C8 monoclonal antibody (antibody, V domains shown)
VH: EVQLQQSGPELVKPGASVKISCKASGYSFTGYTMNWVKQSHGKSLEWIGRINPYNGDSFYNQKFKGKATLTVDKSSNIAHMEFLSLTSEDSAVYYCGRSGDGPWFAYWGQGTLVTVSA
VL: LPLSLPVSLGDQASISCRSSQSIVHNNGNTYLEWYLQKPGQSPKLLIYKVSNRFSGVPDRFSGSGSGTDFTLKISRVEAEDLGVYYCFQGSHVPLTFGAGTKLEIKGSRS
notes: also called C8 mAb; C8 MAb
binding result [3]: no binding | binding result [4]: no binding

B2: X1 monoclonal antibody (antibody, V domains shown)
VH: EVQLQQSGPELVKPGASVKISCKASGYSFTGYFMNWVKQSHGKSLEWIGRINPYNGDTFYNQKFKGKATLTVDKSSSTAHMELRSLTSEDSAVYYCARLNYRGAYWGQGTLVTVSA
VL: B1 VL
notes: also called X1 mAb
binding result [3]: no binding | binding result [4]: no binding

B3: R2D2: mouse IgM monoclonal antibody from hybridoma R2D2 (ATCC PTA-122178); light chain SEQ ID NO:28, heavy chain SEQ ID NO:29 (antibody, listed as Mus musculus)
heavy: QVQLKQSGPGLVQPSQSLSITCTVSGFSLTSYGVHWVRQSPGKGLEWLGVIWSGGSTDYNAAFISRLSISKDNSKSQVFFKMNSLQANDTAIYYCARRRRSTAMDYWGQGTSVTVSSESQSFPN
light: DIGMTQSXSPQDMSVGPKVTMSSKCRKSLLNSRNQKKYLTSDQQKPGQYTKSLGDFASISESRVTDRFIGSGSGTDLPLGWGILPPLPLADYFCQQHYSTP
modifications: not fully specified; (8)..(8) Xaa can be any naturally occurring amino acid
binding to the cell surface of A. baumannii by flow cytometry [5]: specifically bound | protection against infection (A. baumannii HUMC1 [6]): protective against infection
